Test results: patent US20160009793A1 (BIOARCTIC NEUROSCIENCE, published 2016)

Legend:
Aβ1-42 protofibrils [1] = target: T1, Aβ1-42 protofibrils (UniProt P05067 672-713); assay: inhibition ELISA: antibody pre-incubated in solution with Aβ protofibrils, then transferred to Aβ coated plates; BAN2401 is the reference
T1 construct: domain: Aβ1-42; Aβ numbering is not APP numbering; also called Aβ protofibrils; Aβ-protofibrils
Method: (§1) The binding characteristics towards Aβ protofibrils and Aβ monomers of the antibodies of the invention compared to BAN2401 were analyzed using an inhibition ELISA in which antibodies were pre-incubated in solution with Aβ protofibrils or Aβ monomers and then transferred to Aβ coated ELISA plates, as described in Tucker et. al. J Alzheimers Dis. 2015; 43(2):575-88. doi: 10.3233/JAD-140741. PubMed PMID: 25096615, and references cited therein.

Aβ1-40 monomers = target: T2, Aβ1-40 monomers (UniProt P05067 672-711); assay: inhibition ELISA: antibody pre-incubated in solution with Aβ monomers, then transferred to Aβ coated plates
T2 construct: domain: Aβ1-40; Aβ numbering is not APP numbering; also called Aβ monomers; Aβ monomer
Method: as §1

Aβ1-42 protofibrils [2] = target: T1, Aβ1-42 protofibrils; assay: inhibition ELISA: antibody pre-incubated in solution with Aβ protofibrils, then transferred to Aβ coated plates
Method: as §1

T1 sequence (P05067 672-713 limits assumed): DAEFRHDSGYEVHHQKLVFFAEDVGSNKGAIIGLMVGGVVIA
T2 sequence (P05067 672-711 limits assumed): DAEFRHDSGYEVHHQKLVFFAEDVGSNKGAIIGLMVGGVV

Row | Binder | binding result (Aβ1-42 protofibrils [1]) | binding result (Aβ1-40 monomers) | binding result (Aβ1-42 protofibrils [2])
1 | BAN2401 (antibody, V domains shown, also called humanized version of mAb158) VH: EVQLVESGGGLVQPGGSLRLSCSASGFTFSSFGMHWVRQAPGKGLEWVAYISSGSSTIYYGDTVKGRFTISRDNAKNSLFLQMSSLRAEDTAVYYCAREGGYYYGRSYYTMDYWGQGTTVTVSS VL: DVVMTQSPLSLPVTPGAPASISCRSSQSIVHSNGNTYLEWYLQKPGQSPKLLIYKVSNRFSGVPDRFSGSGSGTDFTLRISRVEAEDVGIYYCFQGSHVPPTFGPGTKLEIK | binds |  | 
2 | A17D/R79T (antibody, human IgG1, kappa, V domains shown) VH: EVQLVESGGGLVQPGGSLRLSCSASGFTFSSFGMHWVRQAPGKGLEWVAYISSGSSTIYYGDTVKGRFTISRDNAKNSLFLQMSSLRAEDTAVYYCAREGGYYYGRSYYTMDYWGQGTTVTVSS VL: DVVMTQSPLSLPVTPGDPASISCRSSQSIVHSNGNTYLEWYLQKPGQSPKLLIYKVSNRFSGVPDRFSGSGSGTDFTLTISRVEAEDVGIYYCFQGSHVPPTFGPGTKLEIKR |  | binds | binds
3 | A17D/R79T_DI 6 (antibody, human IgG1, kappa, also called deimmunized variant 6 of A17D/R79T) heavy: not shown light: DVVMTQSPLSLPVTPGDPASVSCRSSQSIVHSNGNTYLEWYLQKPGQSPKLLIYKVSNRFSGVPDRFSGSGSGTDFTLTISRVDAEDVGIYYCFQGSHVPPTFGPGTKLEIKRTVAAPSVFIFPPSDEQLKSGTASVVCLLNNFYPREAKVQWKVDNALQSGNSQESVTEQDSKDSTYSLSSTLTLSKADYEKHKVYACEVTHQGLSSPVTKSFNRGEC |  | binds | binds
4 | A17D/R79T_DI 4 (antibody, human IgG1, kappa, also called deimmunized variant 4 of A17D/R79T) heavy: not shown light: DVVMTQSPLSLPATPGDPASISCRSSQSIVHSNGNTYLEWYLQKPGQSPKLLIYKVSNRFSGVPDRFSGSGSGTDFTLTISRVDAEDVGIYYCFQGSHVPPTFGPGTKLEIKRTVAAPSVFIFPPSDEQLKSGTASVVCLLNNFYPREAKVQWKVDNALQSGNSQESVTEQDSKDSTYSLSSTLTLSKADYEKHKVYACEVTHQGLSSPVTKSFNRGEC |  | binds | binds
5 | A17D (antibody, human IgG1, kappa, V domains shown) VH: EVQLVESGGGLVQPGGSLRLSCSASGFTFSSFGMHWVRQAPGKGLEWVAYISSGSSTIYYGDTVKGRFTISRDNAKNSLFLQMSSLRAEDTAVYYCAREGGYYYGRSYYTMDYWGQGTTVTVSS VL: DVVMTQSPLSLPVTPGDPASISCRSSQSIVHSNGNTYLEWYLQKPGQSPKLLIYKVSNRFSGVPDRFSGSGSGTDFTLRISRVEAEDVGIYYCFQGSHVPPTFGPGTKLEIKR |  | binds | binds
6 | A17D/R79T_DI 8 (antibody, human IgG1, kappa, also called deimmunized variant 8 of A17D/R79T) heavy: not shown light: DVVMTQSPLSLPATPGDPASISCRSSQSIVHSNGNTYLEWYLQKPGQSPKLLIYKVSNRFSGVPDRFSGSGSGTDFTLTISRVDAEDVGIYYCFQGSHVPPTFGPGTKLEIKRTVAAPSVFIFPPSDEQLKSGTASVVCLLNNFYPREAKVQWKVDNALQSGNSQESVTEQDSKDSTYSLSSTLTLSKADYEKHKVYACEVTHQGLSSPVTKSFNRGEC |  | binds | binds
7 | A17D/R79T_DI 7 (antibody, human IgG1, kappa, also called deimmunized variant 7 of A17D/R79T) heavy: not shown light: DVVMTQSPLSLPATPGDPASISCRSSQSIVHSNGNTYLEWYLQKPGQSPKLLIYKVSNRFSGVPDRFSGSGSGTDFTLTIQRVEAEDVGIYYCFQGSHVPPTFGPGTKLEIKRTVAAPSVFIFPPSDEQLKSGTASVVCLLNNFYPREAKVQWKVDNALQSGNSQESVTEQDSKDSTYSLSSTLTLSKADYEKHKVYACEVTHQGLSSPVTKSFNRGEC |  | binds | binds
8 | A17D/R79T_DI 1 (antibody, human IgG1, kappa, also called deimmunized variant 1 of A17D/R79T) heavy: not shown light: DVVMTQSPLSLPVTPGDPASVSCRSSQSIVHSNGNTYLEWYLQKPGQSPKLLIYKVSNRFSGVPDRFSGSGSGTDFTLTIQRVEAEDVGIYYCFQGSHVPPTFGPGTKLEIKRTVAAPSVFIFPPSDEQLKSGTASVVCLLNNFYPREAKVQWKVDNALQSGNSQESVTEQDSKDSTYSLSSTLTLSKADYEKHKVYACEVTHQGLSSPVTKSFNRGEC |  | binds | binds
9 | A17D/R79T_DI 3 (antibody, human IgG1, kappa, also called deimmunized variant 3 of A17D/R79T) heavy: not shown light: DVVMTQSPLSLPATPGDPASISCRSSQSIVHSNGNTYLEWYLQKPGQSPKLLIYKVSNRFSGVPDRFSGSGSGTDFTLTIQRVEAEDVGIYYCFQGSHVPPTFGPGTKLEIKRTVAAPSVFIFPPSDEQLKSGTASVVCLLNNFYPREAKVQWKVDNALQSGNSQESVTEQDSKDSTYSLSSTLTLSKADYEKHKVYACEVTHQGLSSPVTKSFNRGEC |  | binds | binds
10 | A17D/R79T/R82S (antibody, human IgG1, kappa, V domains shown) VH: EVQLVESGGGLVQPGGSLRLSCSASGFTFSSFGMHWVRQAPGKGLEWVAYISSGSSTIYYGDTVKGRFTISRDNAKNSLFLQMSSLRAEDTAVYYCAREGGYYYGRSYYTMDYWGQGTTVTVSS VL: DVVMTQSPLSLPVTPGDPASISCRSSQSIVHSNGNTYLEWYLQKPGQSPKLLIYKVSNRFSGVPDRFSGSGSGTDFTLTISSVEAEDVGIYYCFQGSHVPPTFGPGTKLEIKR |  | binds | binds
11 | A17D/R79T_DI 5 (antibody, human IgG1, kappa, also called deimmunized variant 5 of A17D/R79T) heavy: not shown light: DVVMTQSPLSLPVTPGDPASVSCRSSQSIVHSNGNTYLEWYLQKPGQSPKLLIYKVSNRFSGVPDRFSGSGSGTDFTLTIQRVEAEDVGIYYCFQGSHVPPTFGPGTKLEIKRTVAAPSVFIFPPSDEQLKSGTASVVCLLNNFYPREAKVQWKVDNALQSGNSQESVTEQDSKDSTYSLSSTLTLSKADYEKHKVYACEVTHQGLSSPVTKSFNRGEC |  | binds | binds
12 | A17D/R79T_DI 2 (antibody, human IgG1, kappa, also called deimmunized variant 2 of A17D/R79T) heavy: not shown light: DVVMTQSPLSLPVTPGDPASVSCRSSQSIVHSNGNTYLEWYLQKPGQSPKLLIYKVSNRFSGVPDRFSGSGSGTDFTLTISRVDAEDVGIYYCFQGSHVPPTFGPGTKLEIKRTVAAPSVFIFPPSDEQLKSGTASVVCLLNNFYPREAKVQWKVDNALQSGNSQESVTEQDSKDSTYSLSSTLTLSKADYEKHKVYACEVTHQGLSSPVTKSFNRGEC |  | binds | binds
13 | A17D/R82S (antibody, human IgG1, kappa, V domains shown) VH: EVQLVESGGGLVQPGGSLRLSCSASGFTFSSFGMHWVRQAPGKGLEWVAYISSGSSTIYYGDTVKGRFTISRDNAKNSLFLQMSSLRAEDTAVYYCAREGGYYYGRSYYTMDYWGQGTTVTVSS VL: DVVMTQSPLSLPVTPGDPASISCRSSQSIVHSNGNTYLEWYLQKPGQSPKLLIYKVSNRFSGVPDRFSGSGSGTDFTLRISSVEAEDVGIYYCFQGSHVPPTFGPGTKLEIKR |  | binds | binds
